Measurements taken from PMC2259325.
Like-named read-outs stand apart in the source and are kept apart here.

Assays:
[1] = molecular target: GST-Fyn SH3 domain fusion protein (wild type) (UniProt P06241); assay: SPR; Biacore 3000, HBS buffer (10 mM Hepes-NaOH pH 7.4, 150 mM NaCl, 0.005% Tween-20), 25°C; GST-SH3 captured on CM5 chip via amine-coupled anti-GST antibody; NS5A 3 μM - 100 nM flowed over, in triplicate; 1:1 Langmuir fit
Hck SH3 (Homo sapiens) [2] = molecular target: Hck SH3 (Homo sapiens) (UniProt P08631); conditions: cited from earlier work
Chain of Hck SH3 (Homo sapiens) (P08631 75-141): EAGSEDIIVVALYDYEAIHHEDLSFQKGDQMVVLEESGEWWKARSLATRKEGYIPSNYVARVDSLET

Hck SH3 (Homo sapiens) [3] = molecular target: Hck SH3 (Homo sapiens) (UniProt P08631); conditions: cited from earlier work; remark: listed apart in the source

Chain of GST-Fyn SH3 domain fusion protein (wild type) (P06241 82-143): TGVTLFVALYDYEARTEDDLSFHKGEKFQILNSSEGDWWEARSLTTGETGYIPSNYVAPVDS

With “NS5A(Δ250), N-terminally truncated hepatitis C virus non-structural 5A protein (domain or fragment)” the koff [1] was 0.00494 s⁻¹ and the kon [1] was 9050 M⁻¹ s⁻¹.

For Nef (from UniProt P04324), the Kd (Hck SH3 (Homo sapiens) [2]) is given as 0.25 µM.

For “Nef PxxPxR-containing peptide PxxPxR peptide (from UniProt P04324)”, the Kd (Hck SH3 (Homo sapiens) [3]) is listed as 91 µM.
